{
  "source": "patent US10011641B2",
  "key": {"[1]": {"target": "PEP17081 (Artificial sequence)", "test": "affinity purification on anti-ABD agarose, spectrophotometric analysis of the eluted pool"}, "[2]": {"target": "PEP06548 (Artificial sequence)", "test": "affinity purification on anti-ABD agarose with about 2.3 mg ligand per ml resin, absorbance measurement"}},
  "note": "Non-standard residues stand in square brackets, D forms with d. No end group written: not given here. Z06677 = not defined here",
  "data": [
    {"binder": "GSSLQ[Z06677][Z06677]VDC (designed binder, reading uncertain; also: printed as GSSLQ-[Z06677][Z06677]-VDC)", "note": "[(Z06677)2-Cys]", "values": [
      {"measurement": "binding capacity (mg PEP17081 per ml resin)", "setting": "[1]", "value": 13},
      {"measurement": "purified protein obtained per ml of resin (mg per ml of resin)", "setting": "[2]", "value": 3.7},
      {"measurement": "sample molecules per ligand", "setting": "[2]; scale: PEP06548 molecule per", "value": 1}
    ]}
  ]
}
